From patent publication US20160083466A1 (Regeneron, published 2016)
One block for each binder: values may come before it.

Columns and labels:
[1] = biological target: T1, human IL-25 expressed with a C-terminal myc-myc-hexahistidine tag (human); assay: SPR Biacore, captured mAb, 25°C;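 further: biacore 4000 SPR with IL-25-MMH as analyte over purified anti-IL-25 antibodies, association and dissociation rates derived from fitting sensorgrams to a 1:1 binding model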
T1 construct: also called human IL-25-MMH; hIL-25-MMH
T1 chain: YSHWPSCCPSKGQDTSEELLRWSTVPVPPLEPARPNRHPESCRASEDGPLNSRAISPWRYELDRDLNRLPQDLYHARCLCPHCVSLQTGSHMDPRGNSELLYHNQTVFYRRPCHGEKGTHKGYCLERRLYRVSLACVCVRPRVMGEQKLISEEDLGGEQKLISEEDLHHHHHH
Experimental: (§1) Equilibrium dissociation constants (KD values) for IL-25 binding to purified anti-IL-25 antibodies were determined using a real-time surface plasmon resonance biosensor assay on a Biacore 4000 instrument (GE Healthcare). […] All the IL-25 reagents were expressed with a C-terminal myc-myc-hexahistidine tag (referred to herein as “IL-25-MMH”). […] Kinetic association (kₐ) and dissociation (kd) rate constants were determined by fitting the real-time sensorgrams to a 1:1 binding model using Scrubber 2.0c curve fitting software.

[2] = biological target: T1, human IL-25 expressed with a C-terminal …; assay: SPR Biacore, captured mAb, 37°C
Experimental: as §1

[3] = biological target: T2, monkey IL-25 expressed with a C-terminal myc-myc-hexahistidine tag (M. fascicularis (cynomolgus monkey)); assay: SPR Biacore, captured mAb, 25°C;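 further: Real-time surface plasmon resonance on a Biacore 4000, with IL-25-MMH binding to purified anti-IL-25 antibodies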
T2 construct: also called monkey IL-25-MMH; MfIL-25-MMH
T2 chain: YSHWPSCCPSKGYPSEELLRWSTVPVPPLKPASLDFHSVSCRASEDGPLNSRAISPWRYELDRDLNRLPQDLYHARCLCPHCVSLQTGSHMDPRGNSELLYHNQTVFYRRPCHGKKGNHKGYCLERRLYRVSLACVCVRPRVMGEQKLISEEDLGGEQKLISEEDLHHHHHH
Experimental: as §1

[4] = biological target: T3, rat IL-25 expressed with a C-terminal myc-myc-hexahistidine tag (rat); assay: SPR Biacore, antibody captured, 25C;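 further: purified anti-IL-25 antibodies were tested by real-time surface plasmon resonance on a Biacore 4000, with rate constants obtained from sensorgram fits to a 1:1 binding model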
T3 construct: also called Rat IL-25-MMH
T3 chain: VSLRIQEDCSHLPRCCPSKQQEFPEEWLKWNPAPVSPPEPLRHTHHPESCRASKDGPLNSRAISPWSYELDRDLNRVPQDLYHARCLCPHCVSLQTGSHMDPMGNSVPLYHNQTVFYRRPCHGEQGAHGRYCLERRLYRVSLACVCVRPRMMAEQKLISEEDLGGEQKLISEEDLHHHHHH

[5] = biological target: T4, mouse IL-25 expressed with a C-terminal myc-myc-hexahistidine tag (mouse); assay: SPR Biacore, antibody captured, 37C;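 further: Real-time sensorgrams of IL-25-MMH binding to purified anti-IL-25 antibodies, rate constants obtained by fitting a 1:1 binding model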
T4 construct: also called Mouse IL-25-MMH; mIL-25-MMH
T4 chain: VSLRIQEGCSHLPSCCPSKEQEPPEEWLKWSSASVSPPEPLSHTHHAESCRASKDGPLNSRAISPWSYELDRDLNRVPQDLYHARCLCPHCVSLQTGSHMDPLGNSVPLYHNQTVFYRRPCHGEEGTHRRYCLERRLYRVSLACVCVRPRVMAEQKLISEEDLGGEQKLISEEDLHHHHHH
Experimental: as §1

[6] = biological target: T5, human IL-25 expressed with a C-terminal myc-myc-hexahistidine tag (human); assay: competition ELISA, 2 nM hIL-25-MMH binding to coated hIL-17RB-hFc
T5 construct: also called hIL-25-MMH; Human IL-25-MMH
T5 chain: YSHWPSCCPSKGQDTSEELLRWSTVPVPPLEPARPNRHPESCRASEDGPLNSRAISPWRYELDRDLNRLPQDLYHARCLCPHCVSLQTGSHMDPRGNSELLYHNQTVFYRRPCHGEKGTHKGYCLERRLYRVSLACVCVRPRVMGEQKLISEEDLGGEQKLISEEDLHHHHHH
Experimental: Data analysis was performed using a sigmoidal dose-response model within Prism™ software (GraphPad). […] The absorbance values of the wells containing the highest concentration for each antibody were used to determine the percent maximum blockade.

[7] = biological target: T5, human IL-25 expressed with a C-terminal …; assay: BLI Octet, hIL-25-MMH captured on anti-Penta-His sensor, 25C
Experimental: Binding competition between anti-IL-25 monoclonal antibodies was determined using a real time, label-free bio-layer interferometry assay on an Octet QK384 biosensor (Pall ForteBio Corp.).
The biosensors were washed in HBST kinetics buffer in between every step of the experiment. The real-time binding response was monitored during the course of the experiment and the binding response at the end of every step was recorded.

[8] = biological target: T3, rat IL-25 expressed with a C-terminal …; assay: SPR Biacore, antibody captured, 37C
Experimental: as §1

[9] = biological target: T4, mouse IL-25 expressed with a C-terminal …; assay: SPR Biacore, antibody captured, 25C
Experimental: as §1

B1: H4H10876P (antibody, human IgG4, V domains shown)
VH: QVQLVQSGAEVKKPGASVKVSCKASEYTFSNYGISWVRQAPGQGLEWLGWIGAYSGFTKYAQKVQDRITMTTDASTTTAYMELRNLRSDDTAVYYCARVGTGTDSYFDFWGQGTLVTVSS
VL: DIQMTQSPSSLSASVGDRVTITCRASQNINSHLNWYQQKPGKAPKLLIYTASSLQSGVPLRFSGSGSGTDFTLTISSLQPEDFGIYICQQTYITPLTFGGGTKVEIK
100 nM Human IL-25-MMH Bound (RU) [1]: 45 RU
Kd [1]: 0.124 nM
koff [1]: 4.78e-05 s⁻¹
kon [1]: 386000 M⁻¹ s⁻¹
t½ [1]: 242 min
100 nM Human IL-25-MMH Bound (RU) [2]: 60 RU
Kd [2]: 0.0944 nM
koff [2]: 5.93e-05 s⁻¹
kon [2]: 628000 M⁻¹ s⁻¹
t½ [2]: 195 min
100 nM Monkey IL-25-MMH Bound (RU) [3]: 51 RU
Kd [3]: 0.218 nM
koff [3]: 7.18e-05 s⁻¹
kon [3]: 329000 M⁻¹ s⁻¹
t½ [3]: 161 min

B2: H4H10883P (antibody, human IgG4, V domains shown)
VH: QVQLQESGPGLVKSSETLSLTCTVSGGSISSYYWSWIRQPPGKGLEWIGFIYYSGSTNYNPSLKSRVTFSVDTSKNHFSLKLNSVTATDTAVYYCARHYFDSGTYELGPFDYWGQGTLVTVSS
VL: DIVMTQSPDSLAVSLGERATINCKSSQNILLTSSNKNYLTWYQQKPGQPPKLLIYWASIRESGVPDRFSGSGSGTDFTLTISSLQAEDVALYFCQQYYITPFTFGPGTKVDIK
100 nM Human IL-25-MMH Bound (RU) [1]: 56 RU
Kd [1]: ≤ 0.0142 nM
koff [1]: ≤ 1e-05 s⁻¹
kon [1]: 706000 M⁻¹ s⁻¹
t½ [1]: 1160 min
100 nM Human IL-25-MMH Bound (RU) [2]: 74 RU
Kd [2]: 0.0304 nM
koff [2]: 4.8e-05 s⁻¹
kon [2]: 1.58e+06 M⁻¹ s⁻¹
t½ [2]: 241 min
100 nM Monkey IL-25-MMH Bound (RU) [3]: 58 RU
Kd [3]: ≤ 0.00965 nM
koff [3]: ≤ 1e-05 s⁻¹
kon [3]: 1.04e+06 M⁻¹ s⁻¹
t½ [3]: 1160 min

B5: H2aM10690N (antibody, V domains shown)
VH: QVQLVQSGAEVKKPGASVKVSCKASGYTFTSYGISWVRQAPGQGLEWMGWISAYNGNTNYAQKLQGRVTMTTDTSTSTAYMELRSLRSDDTAVYYCARVPITGTTWFDPWGQGTLVTVSS
VL: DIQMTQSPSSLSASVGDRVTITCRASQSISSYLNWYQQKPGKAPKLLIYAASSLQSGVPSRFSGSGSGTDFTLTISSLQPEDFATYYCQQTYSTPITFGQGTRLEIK
notes: also called H2M10690N
100 nM Rat IL-25-MMH Bound (RU) [4]: 18 RU
Kd [4]: 103 nM
koff [4]: 0.0095 s⁻¹
kon [4]: 91800 M⁻¹ s⁻¹
t½ [4]: 1.2 min
100 nM Mouse IL-25-MMH Bound (RU) [5]: 27 RU
Kd [5]: 81.7 nM
koff [5]: 0.00778 s⁻¹
kon [5]: 95300 M⁻¹ s⁻¹
t½ [5]: 1.5 min
% Maximum blocking of 200 nM antibody [6]: 70%
IC50 [6]: 31 nM
50 ug/mL mAb-1 Binding (nm) [7]: 1.38 nm
100 nM Rat IL-25-MMH Bound (RU) [8]: 20 RU
Kd [8]: 115 nM
koff [8]: 0.0193 s⁻¹
kon [8]: 168000 M⁻¹ s⁻¹
t½ [8]: 0.6 min
100 nM Mouse IL-25-MMH Bound (RU) [9]: 17 RU
Kd [9]: 82.3 nM
koff [9]: 0.00319 s⁻¹
kon [9]: 38800 M⁻¹ s⁻¹
t½ [9]: 4 min

More lines, now with the values ahead:

100 nM Human IL-25-MMH Bound (RU) [1]: 40 RU
Kd [1]: 0.0883 nM
koff [1]: 6.5e-05 s⁻¹
kon [1]: 736000 M⁻¹ s⁻¹
t½ [1]: 178 min
100 nM Human IL-25-MMH Bound (RU) [2]: 47 RU
Kd [2]: 0.0375 nM
koff [2]: 4.45e-05 s⁻¹
kon [2]: 1.19e+06 M⁻¹ s⁻¹
t½ [2]: 259 min
100 nM Monkey IL-25-MMH Bound (RU) [3]: 43 RU
Kd [3]: 0.0485 nM
koff [3]: 6.74e-05 s⁻¹
kon [3]: 1.39e+06 M⁻¹ s⁻¹
t½ [3]: 171 min
B3: H4H10907P (antibody, human IgG4, V domains shown)
VH: EVQLVESGGGLVQPGGSLRLSCAASGFTFSNYDIHWVRQVPGKGLEWISTIGSAGDTFYPGSVKGRFTISRENAKNSLYLQMNSLRAGDSAVYYCARGDNWNYVSWFFDLWGRGTLVTVSS
VL: DIQLTQSPSFLSTSVGDRVTITCWASQDISSFLAWYQQKPGKAPKLLIYAASVLQSGVPSRFSGSGSGTEFTLTISSLQPEDFATYYCQQVNSYPITFGQGTRLEIK

100 nM Human IL-25-MMH Bound (RU) [1]: 32 RU
Kd [1]: 36.2 nM
koff [1]: 0.0029 s⁻¹
kon [1]: 80200 M⁻¹ s⁻¹
t½ [1]: 4 min
100 nM Human IL-25-MMH Bound (RU) [2]: 39 RU
Kd [2]: 61.4 nM
koff [2]: 0.00844 s⁻¹
kon [2]: 137000 M⁻¹ s⁻¹
t½ [2]: 1.4 min
B4: H2M10690N (antibody, V domains shown)
VH: QVQLVQSGAEVKKPGASVKVSCKASGYTFTSYGISWVRQAPGQGLEWMGWISAYNGNTNYAQKLQGRVTMTTDTSTSTAYMELRSLRSDDTAVYYCARVPITGTTWFDPWGQGTLVTVSS
VL: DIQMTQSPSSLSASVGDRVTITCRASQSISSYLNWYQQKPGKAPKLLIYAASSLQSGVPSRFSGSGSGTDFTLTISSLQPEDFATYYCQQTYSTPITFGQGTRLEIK
notes: also called H2aM10690N
